Measurements from publication PMC5553193 (2015).
Ends that are not written are not given here.

Biological target: concanavalin A (Canavalia ensiformis, UniProt P02866)
Assay: ITC

concanavalin A, sequence (P02866 whole entry, looked up): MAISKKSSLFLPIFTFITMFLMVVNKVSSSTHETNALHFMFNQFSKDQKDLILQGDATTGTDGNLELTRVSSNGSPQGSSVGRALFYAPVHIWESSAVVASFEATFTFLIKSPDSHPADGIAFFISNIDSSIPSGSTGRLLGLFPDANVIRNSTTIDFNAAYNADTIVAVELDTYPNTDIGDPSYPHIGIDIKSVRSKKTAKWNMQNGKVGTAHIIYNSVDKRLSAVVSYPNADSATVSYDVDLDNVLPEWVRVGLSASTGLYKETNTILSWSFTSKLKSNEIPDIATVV

Binder | Kd
Man-WYDLF [Man-WYDLF (L37)] | 4.6 µM
Man-WYDLFDNINS [Man-WYDLFDNINS (L30)] | 4.3 µM
